Laboratory results taken from US20040102370A1 (IMPERIAL INNOVATIONS, published 2004).
Several values for one entry are separate records, joined by “and”; a condition that tells them apart may be missing. Identical values can stand only once. No end group written: not given here.

B1: Peptide A(d): [{Ac-DRVEPYSSTA}2-K]2-K-OH (peptide)
peptide: Ac-DRVEPYSSTA
chain: Lys-OH
modifications: also: four copies of chain 1 on a branched core of three lysines (two Lys on α- and ε-amines of C-terminal Lys)

Molecular target: FGF receptors
Assay: cell-based or functional assay

Binder	peptide concentration giving maximal effect in the neurite outgrowth assay
Ac-DAVEPYSSTA-NH2 [Peptide F: Acetyl-DAVEPYSSTA-amide]	100 µg/ml and 100 µM
Ac-DRVE-NH2 [Peptide B: Acetyl-DRVE-amide]	75 µg/ml and 150 µM
Ac-EGMEGM-NH2 [Peptide D: Acetyl-EGMEGM-amide]	63 µg/ml and 100 µM
B1	~0.4 µM
